{
  "source": "paper doi:10.1101/2024.12.19.629503",
  "molecular_target": "di-nucleosome of X. laevis histone octamers on two Widom 601 sequences (unmodified) (X. laevis)",
  "assay": "cryo-EM structure",
  "data": [
    {"substance": "DNMT3A2/3B3 hetero-tetramer (from UniProt Q9UBC3-3 1-770) (complex)", "values": [
      {"measurement": "stoichiometry N (hetero-tetramers per di-nucleosome)", "value": 2}
    ]}
  ]
}
